Laboratory results as given in article PMC8495968 (2021).
Ends that are not written are not given here. * marks the point of attachment. FITC = O=C1OC2(c3ccc(O)cc3Oc3cc(O)ccc32)c2ccc(NC(=S)*)cc21; Ahx = NCCCCCC(=O)O

Molecular target: MCL-1 (Homo sapiens, UniProt Q07820)
Test: fluorescence anisotropy direct titration

MCL-1, sequence (Q07820 whole entry): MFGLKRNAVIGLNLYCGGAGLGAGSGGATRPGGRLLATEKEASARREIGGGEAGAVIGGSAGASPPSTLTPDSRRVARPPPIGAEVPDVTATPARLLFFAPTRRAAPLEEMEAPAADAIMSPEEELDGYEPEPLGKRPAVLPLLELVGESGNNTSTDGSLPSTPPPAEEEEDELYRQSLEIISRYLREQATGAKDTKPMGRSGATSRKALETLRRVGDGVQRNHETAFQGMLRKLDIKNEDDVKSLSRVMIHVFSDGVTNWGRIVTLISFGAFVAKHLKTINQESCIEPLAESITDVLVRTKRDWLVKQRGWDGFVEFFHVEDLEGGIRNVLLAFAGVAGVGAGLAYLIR

Binder: {FITC-Ahx}-TRSPLFIFMRR [FITC-Ahx-BIM75–85 75-85]
- Kd: 204 nM
